Experimental data as given in patent US20080182978A1, “ANTI-NGF ANTIBODIES AND METHODS USING SAME” (RINAT NEUROSCIENCE CORP, priority 2002, published 2008).
Entries after “also recorded” stand apart in the source; their conditions may differ.

Columns and labels:
[1] = system: post-surgical resting pain (paw incision); experiment: Post-surgical pain model, cumulative resting pain score; format: in vivo, rat
[2] = system: moderate to severe pain from osteoarthritis of the knee; experiment: Clinical study, osteoarthritis of the knee: index knee pain VAS, PID/SPID; format: in vivo, human
Text: Adult males and females (ages between 35 to 65) who were experiencing moderate-to-severe pain from osteoarthritis of the knee, but were in otherwise overall good health were enrolled in the study. During the screening period, patients were required to discontinue arthritis medications such as NSAIDs, cyclooxygenase type-2 (COX-2) inhibitors, and opiates at least 14 days prior to administration of anti-NGF antibody E3. Patients were allowed to use rescue medications of acetaminophen or ibuprofen with some restrictions based on laboratory findings or past medical history. Some patients took rescue medications during the study, but rescue medications were not consumed for 2 days before and after administration of anti-NGF antibody E3. Thirty-four patients were admitted to the study and assessed as inpatients for on Study Days -1, 1 and 2. Anti-NGF antibody E3 administration occurred on the morning of Day 1. Electronic diaries were used to record index knee pain and rescue medication usage in clinic and at home. Ten patients were treated with placebo. Twenty-four patients were treated with anti-NGF antibody E3: four patients per dose level for 3 μg/kg (cohort 1), 10 μg/kg (cohort 2), and 30 μg/kg (cohort 3); and six patients per dose level for 100 μg/kg (cohort 4) and 300 μg/kg (cohort 5). The placebo used was sterile 0.9% Sodium Chloride Injection, USP (normal saline). Anti-NGF antibody E3 was a frozen liquid formulation consisting of 10 mg/ml antibody in an aqueous solution of 10 mM histidine, 275 mM sucrose, 0.01% polysorbate 20, pH 6.0. One hour prior to IV administration, frozen antibody was thawed and diluted into Sodium Chloride Injection, USP. The volume for each patient was calculated based on the subject's Day -1 weight and assigned dose level, ranging from 3-6 cc for cohort 1, 10-20 cc for cohort 2, 30-60 cc for cohort 3, and 100 cc for cohort 4 and cohort 5. For cohorts 1 and 2, antibody E3 was administered by a slow IV bolus over 3 to 5 minutes, followed with an IV flush of 5 cc Sodium Chloride Injection, USP. For cohorts 3-5, antibody E3 was administered at 100 cc/hour via infusion pump, followed with an IV flush of 5 cc Sodium Chloride Injection, USP and discontinuation of the IV. Within each cohort, the placebo (Sodium Chloride Injection, USP) was administered by slow bolus or continuous infusion in the same fashion as the antibody E3. After two in-patient days, patients were discharged home. […] Periodic safety assessments was performed for 181 days in all patients. Analgesic effects were assessed before dosing and at multiple times after administration of antibody E3. […] Patients were cued 4 times daily and instructed to indicate the level of arthritis pain in the index knee at that moment. […] VAS for index knee pain during walking was completed daily, concurrent with the fourth current index knee pain VAS. Electronic diary for data collection was issued on day -8 and a 7-day screening assessment of electronic diary compliance was performed from day -8 to day -2 to determine success in using the electronic diaries for a given subject. Subjects were instructed to complete 4 diaries per day. The mean VAS recorded during the screening period is used as baseline for assessment of efficacy. Outcome was assessed as change from baseline (pain level during screening period), expressed as pain intensity difference (PID) or summed pain intensity difference (SPID) for different dose levels. Changes from baseline in the activity measurements were analyzed using an analysis of covariance (ANCOVA) model with treatment as the main factor and baseline pain as a covariate. For means and mean changes, comparisons of antibody E3 with placebo was made using Dunnett'[…] was used to assess the dose-response relationship.

B1: E3: humanized, affinity matured anti-NGF antagonist antibody; variable regions SEQ ID NO:1 and 2; human IgG2a (A330P331 to S330S331), kappa (antibody, V domains shown)
VH: QVQLQESGPGLVKPSETLSLTCTVSGFSLIGYDLNWIRQPPGKGLEWIGIIWGDGTTDYNSAVKSRVTISKDTSKNQFSLKLSSVTAADTAVYYCARGGYWYATSYYFDYWGQGTLVTVS
VL: DIQMTQSPSSLSASVGDRVTITCRASQSISNNLNWYQQKPGKAPKLLIYYTSRFHSGVPSRFSGSGSGTDFTFTISSLQPEDIATYYCQQEHTLPYTFGQGTKLEIKRT
modifications: human IgG2a constant (A330S/P331S) and kappa constant missing
resting pain (cumulative pain score) ([1]; 0.5 mg/kg i.v. two hours after surgery, assessed 24 hours after surgery): effectively alleviated post-surgical pain; also recorded: reduced resting pain | resting pain (cumulative pain score) ([1]; 0.02 to 1 mg/kg i.p. 15 hours pre-incision, 24 hours after surgery, vs saline): significantly reduced resting pain | Summed pain intensity differences (SPID) as compared to baseline ([2]; All E3 doses, Days 2-8): −713 | Summed pain intensity differences (SPID) as compared to baseline ([2]; All E3 doses, Days 2-14): −1269 | Summed pain intensity differences (SPID) as compared to baseline ([2]; All E3 doses, Days 2-21): −1752 | Summed pain intensity differences (SPID) as compared to baseline ([2]; All E3 doses, Days 2-28): −2254 | Summed pain intensity differences (SPID) as compared to baseline ([2]; E3 3 μg/kg single administration, Days 2-8): −572 | Summed pain intensity differences (SPID) as compared to baseline ([2]; E3 3 μg/kg single administration, Days 2-14): −956 | Summed pain intensity differences (SPID) as compared to baseline ([2]; E3 3 μg/kg single administration, Days 2-21): −1048 | Summed pain intensity differences (SPID) as compared to baseline ([2]; E3 3 μg/kg single administration, Days 2-28): −1067 | Summed pain intensity differences (SPID) as compared to baseline ([2]; E3 10 μg/kg single administration, Days 2-8): −671 | Summed pain intensity differences (SPID) as compared to baseline ([2]; E3 10 μg/kg single administration, Days 2-14): −1174 | Summed pain intensity differences (SPID) as compared to baseline ([2]; E3 10 μg/kg single administration, Days 2-21): −1623 | Summed pain intensity differences (SPID) as compared to baseline ([2]; E3 10 μg/kg single administration, Days 2-28): −2020 | Summed pain intensity differences (SPID) as compared to baseline ([2]; E3 30 μg/kg single administration, Days 2-8): −733 | Summed pain intensity differences (SPID) as compared to baseline ([2]; E3 30 μg/kg single administration, Days 2-14): −1371 | Summed pain intensity differences (SPID) as compared to baseline ([2]; E3 30 μg/kg single administration, Days 2-21): −2042 | Summed pain intensity differences (SPID) as compared to baseline ([2]; E3 30 μg/kg single administration, Days 2-28): −2566 | Summed pain intensity differences (SPID) as compared to baseline ([2]; E3 100 μg/kg single administration, Days 2-8): −766 | Summed pain intensity differences (SPID) as compared to baseline ([2]; E3 100 μg/kg single administration, Days 2-14): −1403 | Summed pain intensity differences (SPID) as compared to baseline ([2]; E3 100 μg/kg single administration, Days 2-21): −1996 | Summed pain intensity differences (SPID) as compared to baseline ([2]; E3 100 μg/kg single administration, Days 2-28): −2726 | Summed pain intensity differences (SPID) as compared to baseline ([2]; E3 300 μg/kg single administration, Days 2-8): −769 | Summed pain intensity differences (SPID) as compared to baseline ([2]; E3 300 μg/kg single administration, Days 2-14): −1340 | Summed pain intensity differences (SPID) as compared to baseline ([2]; E3 300 μg/kg single administration, Days 2-21): −1869 | Summed pain intensity differences (SPID) as compared to baseline ([2]; E3 300 μg/kg single administration, Days 2-28): −2521 | summed pain intensity differences (SPID) vs baseline, ANCOVA ([2]; single administration, p<0.05): pain reduction was statistically significant | mean daily pain intensity (VAS) vs baseline ([2]; single i.v. dose 3, 10, 30, 100 or 300 μg/kg, every dose tested): decrease of mean daily pain intensity | duration of pain intensity reduction / pain relief ([2]; single i.v. dose of 100 μg/kg): at least 80 days
